Measured values published in US20220265711A1 (NANJING LEGEND BIOTECH, published 2022).
One block for each binder: values may come before it.

What was measured:
[1] = molecular target: T1, hybrid CD4 protein: mouse CD4 backbone with human CD4 Domain 1 (human; mouse, UniProt P06332 129-457, limits assumed); assay: flow cytometry on HEK293-6E cells expressing mouse CD4 with human CD4 domain 1, against isotype control
T1 construct: Transiently expressed on HEK-293 cells from the pcDNA3.4 vector; also called D1
Text: (§1) CD4 is a member of immunoglobulin superfamily. It contains four extracellular immunoglobulin domains, Domain 1 to 4 from distal to proximal to cell membrane. The four CD4 extracellular domains and its intracellular domain were named D1-D5 and were expressed transiently with a mouse CD4 backbone in HEK-293 cells. The three antibodies were used to detect human CD4 D1-D5 expression by flow cytometry on these 293 cells.

HEK293-6E/domain5 = molecular target: T2, HEK293-6E/domain5 (Mus musculus;Homo sapiens, UniProt P06332;P01730); assay: flow cytometry on HEK293-6E cells expressing mouse CD4 with human CD4 domain 5 (intracellular), against isotype control
T2 construct: full-length backbone without its own intracellular domain;single domain inserted in the mouse backbone; transiently expressed on HEK-293 cells; the human part is intracellular, the extracellular part is mouse CD4; also called hybrid CD4 protein: mouse CD4 backbone with human CD4 intracellular domain; D5
Text: as §1

human CD4 = human CD4 (human, UniProt P01730 26-458); assay: cell-based or functional assay

T2 sequence (P06332 other isoform, or with tags, fused parts or gaps limits assumed): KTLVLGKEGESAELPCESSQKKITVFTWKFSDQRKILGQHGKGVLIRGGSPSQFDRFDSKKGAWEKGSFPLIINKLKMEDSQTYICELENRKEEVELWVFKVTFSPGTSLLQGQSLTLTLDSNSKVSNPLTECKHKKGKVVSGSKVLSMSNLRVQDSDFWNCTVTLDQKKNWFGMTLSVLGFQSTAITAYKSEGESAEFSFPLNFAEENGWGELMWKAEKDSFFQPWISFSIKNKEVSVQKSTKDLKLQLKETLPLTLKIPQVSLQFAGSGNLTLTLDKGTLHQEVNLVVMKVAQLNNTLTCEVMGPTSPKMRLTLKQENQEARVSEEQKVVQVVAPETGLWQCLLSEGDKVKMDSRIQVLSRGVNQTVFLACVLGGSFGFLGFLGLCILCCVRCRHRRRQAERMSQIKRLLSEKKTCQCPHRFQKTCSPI
T1 sequence (P06332 other isoform, or with tags, fused parts or gaps limits assumed): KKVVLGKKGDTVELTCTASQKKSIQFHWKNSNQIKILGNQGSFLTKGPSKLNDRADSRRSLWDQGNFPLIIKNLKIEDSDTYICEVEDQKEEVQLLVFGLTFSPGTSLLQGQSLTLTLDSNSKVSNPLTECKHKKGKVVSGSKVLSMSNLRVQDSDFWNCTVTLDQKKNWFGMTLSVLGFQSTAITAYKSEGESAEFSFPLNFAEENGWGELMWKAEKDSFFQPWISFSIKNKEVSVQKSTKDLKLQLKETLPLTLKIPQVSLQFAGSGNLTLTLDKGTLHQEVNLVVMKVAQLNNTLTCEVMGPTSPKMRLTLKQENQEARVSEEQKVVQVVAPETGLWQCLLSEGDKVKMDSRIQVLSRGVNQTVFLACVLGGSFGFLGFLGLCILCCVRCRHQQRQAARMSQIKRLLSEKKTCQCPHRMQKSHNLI

binding result [1]: no binding | binding result (HEK293-6E/domain5): no binding
B1: Tregalizumab (antibody, V domains shown)
VH: EEQLVESGGGLVKPGGSLRLSCAASGFSFSDCRMYWLRQAPGKGLEWIGVISVKSENYGANYAESVRGRFTISRDDSKNTVYLQMNSLKTEDTAVYYCSASYYRYDVGAWFAYWGQGTLVTVSS
VL: DIVMTQSPDSLAVSLGERATINCRASKSVSTSGYSYIYWYQQKPGQPPKLLIYLASILESGVPDRFSGSGSGTDFTLTISSLQAEDVAVYYCQHSRELPWTFGQGTKVEIKR
notes: also called Tregalizumab monoclonal antibody

binding result [1]: no binding | binding result (HEK293-6E/domain5): no binding
B2: Ibalizumab (antibody, V domains shown)
VH: QVQLQQSGPEVVKPGASVKMSCKASGYTFTSYVIHWVRQKPGQGLDWIGYINPYNDGTDYDEKFKGKATLTSDTSTSTAYMELSSLRSEDTAVYYCAREKDNYATGAWFAYWGQGTLVTVSS
VL: DIVMTQSPDSLAVSLGERVTMNCKSSQSLLYSTNQKNYLAWYQQKPGQSPKLLIYWASTRESGVPDRFSGSGSGTDFTLTISSVQAEDVAVYYCQQYYSYRTFGGGTKLEIKR
notes: also called Ibalizumab monoclonal antibody

Further lines, the binder ahead of its results:

B3: CAR No. 6 (anti-CD4 chimeric antigen receptor) (other)
chain: QIQLVQSGPELKKPGETVKISCKASGYTFTNYGMNWVKQAPGKGLKCMGWINTNTGEPTYAEEFKGRFAFSLETSATTAFLQINNLKDEDTATYFCARLGLYYDYGYYAMDYWGQGASVTVSSGGGGSGGGGSGGGGSNIVLTQSPASLAVSLGQRATISCRASESVDSYGNSFMHWYQQKPGQPPKLFIYLASNLESGVPARFSGSGSRTDFTLTIDPVEADDAATYYCQQNNEDPYTFGGGTKLEIKTTTPAPRPPTPAPTIASQPLSLRPEACRPAAGGAVHTRGLDFACDIYIWAPLAGTCGVLLLSLVITLYCKRGRKKLLYIFKQPFMRPVQTTQEEDGCSCRFPEEEEGGCELRVKFSRSADAPAYKQGQNQLYNELNLGRREEYDVLDKRRGRDPEMGGKPRRKNPQEGLYNELQKDKMAEAYSEIGMKGERRRGKGHDGLYQGLSTATKDTYDALHMQALPPR
CD4+ cells in the effector population after 24 h co-culture (18.9% in UNT control) (human CD4): 13.1%

B4: CAR No. 3 (anti-CD4 chimeric antigen receptor, Tregalizumab VH/VL) (other)
chain: EEQLVESGGGLVKPGGSLRLSCAASGFSFSDCRMYWLRQAPGKGLEWIGVISVKSENYGANYAESVRGRFTISRDDSKNTVYLQMNSLKTEDTAVYYCSASYYRYDVGAWFAYWGQGTLVTVSSAGGGGSGGGGSGGGGSDIVMTQSPDSLAVSLGERATINCRASKSVSTSGYSYIYWYQQKPGQPPKLLIYLASILESGVPDRFSGSGSGTDFTLTISSLQAEDVAVYYCQHSRELPWTFGQGTKVEIKRTTTPAPRPPTPAPTIASQPLSLRPEACRPAAGGAVHTRGLDFACDIYIWAPLAGTCGVLLLSLVITLYCKRGRKKLLYIFKQPFMRPVQTTQEEDGCSCRFPEEEEGGCELRVKFSRSADAPAYKQGQNQLYNELNLGRREEYDVLDKRRGRDPEMGGKPRRKNPQEGLYNELQKDKMAEAYSEIGMKGERRRGKGHDGLYQGLSTATKDTYDALHMQALPPR
CD4+ cells in the effector population after 24 h co-culture (18.9% in UNT control) (human CD4): 12.5%

B5: CAR No. 4 (anti-CD4 chimeric antigen receptor, scFv derived from SK3) (other)
chain: QVQLQQSGPELVKPGASVKMSCKASGYTFTDYVINWVKQRTGQGLEWIGETYTGSGSSYYNEKFKDKATLTVDKASNIAYMQLSSLTSEDSAVYFCARRGKGTGFAFWGQGTLVTVSAGGGGSGGGGSGGGGSDIVLTQSPASLAVSLGQRATISCKASQSVDYDGDSYMNWYQQKPGQPPKLLIYAASNLESGIPARFTGSGSGTDFTLNIHPVEEEDTATYYCQQSYEDPPTFAGGTNLEIKTTTPAPRPPTPAPTIASQPLSLRPEACRPAAGGAVHTRGLDFACDIYIWAPLAGTCGVLLLSLVITLYCKRGRKKLLYIFKQPFMRPVQTTQEEDGCSCRFPEEEEGGCELRVKFSRSADAPAYKQGQNQLYNELNLGRREEYDVLDKRRGRDPEMGGKPRRKNPQEGLYNELQKDKMAEAYSEIGMKGERRRGKGHDGLYQGLSTATKDTYDALHMQALPPR
CD4+ cells in the effector population after 24 h co-culture (18.9% in UNT control) (human CD4): 0%
